Test results: the RNAGym collection of RNA variant scans (doi:10.1073/pnas.2313332121)

B1: TPR t1 (parent)
chain: GACCAAUCUGCCCUCAGAGCUCGAGAACAUCUUCGGAUGCAGAGGAGGCAGGCUUCGGUGGCGCGAUAGCGCCAACGUCCUCAACCUCCAAUGCAUCCCACCACAUGAUGAUGCCUGAAGAGCCUUGGUUUUUUG

Variants of: B1
Assay: polymerase ribozyme fitness, log enrichment relative to wild type (log ratio); higher = more active; in vitro selection for triplet polymerase activity
Outline: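 Mutant libraries were PCR-built and transcribed for each subunit of a heterodimeric triplet polymerase ribozyme and selected for one round in triplicate at −7 °C, frozen, before gel excision of extended constructs and streptavidin-bead capture. Input and output libraries were Illumina-sequenced, keeping genotypes with ≥10 input reads and ≥1 read per output. Fitness is a logarithmic ratio of genotype to wild-type enrichment, in base 2, using inverse-variance-weighted replicate averages.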

| Variant | polymerase ribozyme fitness (log ratio) |
| --- | --- |
| C11G C15A A95U U130A | -2.76 |
| C11U C20A G61U U133G | -2.19 |
| C11G U78C C82U G117A | -0.181 |
| C11U C13G C114A | -4.11 |
| C11G C70A | -0.991 |
| C11G C70G | -2.08 |
| C11G C64U A84U | -0.0856 |
| C11G A37C A46C G63U C123U | -1.9 |
| C11G C49G A90U C124G U129C | -2.5 |
| C11U C13G A66C C76G A118U C124A U133A | -0.556 |
| C11G C34U C86G A118U | -5.02 |
| C11G U21A C49U G117C | -4.04 |
| C11U A43C C76U A83U A90G | -3.5 |
| C11U A29G C53U C73G | -1.9 |
| C11G C82A | -0.254 |
| C11G A37U G60U G77C | -1.22 |
| C11U C13U A83C C97A | -4.34 |
| C11G C15G G71U G93A G128U | -4.47 |
| C11G G42U C104A A121C | -3.09 |
| C11G C70A G127C | -2.16 |
| C11G C20G A24G U116C | -6.56 |

| Variant | polymerase ribozyme fitness (log ratio) |
| --- | --- |
| C11G A29G G61U C94G | -2.6 |
| C11G C115U U130A | -0.677 |
| C11G U54C | -0.0215 |
| C11U A46G G51U C80U | -1.92 |
| C11G C12G C56A A118G | -0.95 |
| C11A U96G G113C U130A | -5.5 |
| C11G U54C C62A A95C G128C | -3.23 |
| C11G C94U U96A | -0.725 |
| C11G C53A G61C | -4.59 |
| C11G A95U U129C | -1.01 |
| C11G A26C G60U C97U G120U U132A | -3.92 |
| C11U A83G | -1.21 |
| C11G G45A C53G G57U C104G C114U | -6.51 |
| C11U A26U G47U | -3.55 |
| C11U A18U | -1.98 |
| C11G U32C A41G G45A A90C U96C C98U U106G A111U | -6.91 |
| C11U C15A C64U A84U | -2.56 |
| C11U A18C A27U A46U | -7.63 |
| C11G A37C C53U | 0.228 |
| C11G C49U | 0.783 |
| C11G C49A | 0.121 |

| Variant | polymerase ribozyme fitness (log ratio) |
| --- | --- |
| C11G G19A C53U C62U A111G | -1 |
| C11G C12U C53U U54A C86U A90G U96A C101U | -2.39 |
| C11G C31A C73U | -4.73 |
| C11G C12U G42C G69C C115G | -6.44 |
| C11G A121G G127U | 0.00144 |
| C11G G35A G60C C98U | -1.01 |
| C11G C64A A111U U130G | -6.86 |
| C11G G52U C62G U116A | -5.35 |
| C11G C72G A91C | -0.65 |
| C11G A50G C62U G110C | -4.81 |
| C11G U32A G48U C64A C73U U96A C123A | -7.31 |
| C11G G39A G61A | -0.302 |
| C11U C20U A27U | -5.92 |
| C11A U112G | -1.43 |
| C11G C12G C104A U106A | -3.92 |
| C11U A90G C97G U129C | -5.59 |
| C11G A16G G71U C101A G128U | -3.82 |
| C11G U55A U59G U106G G117C | -4.89 |
| C11G G39A | 0.759 |
| C11G U54A G93C | -0.558 |
| C11G C20U G69U A84U C85U G122A U126G G128U | -2.39 |

| Variant | polymerase ribozyme fitness (log ratio) |
| --- | --- |
| C11G U30G U112A | -4.82 |
| C11U A43U A84U U112A G128C | -3.29 |
| C11G G36C G44C U78A U87G | -1.77 |
| C11U A46U G47C G52U U55C G117U | -6.86 |
| C11G G44A U125G | -0.96 |
| C11U A26U U54G | -2.81 |
| C11A U96A G113C | -5.3 |
| C11G A41U C56A C72U U92G | -1.47 |
| C11G A27U C49A G61A A84G | -4.25 |
| C11G G17A C72A C124U | -3.65 |
| C11G G47A C88A G127C | -2.42 |
| C11G G19A A37U C85G | -3.64 |
| C11U A43U C53G G120A | -1.5 |
| C11G C114U C124G | -2.07 |
| C11G G51A C53G C124U U131G | -1.71 |
| C11G G60U U116G C124U | -3.49 |
| C11G C79A G120C | 1.11 |
| C11G G57A G58A C62A G63A | -3.98 |
| C11G G44A C56G C82G C88U | -2.81 |
| C11G A37G C40G C72A C101U C123A | 0.0924 |
| C11G U14C A41G C56G | -0.436 |
